Laboratory results: US20090099029A1, “Methods and substrates for conducting assays” (Invitrogen Corporation, priority 2005, published 2009)

B1: RPS6KB2(p70S6K2) (protein)
chain: MAAVFDLDLETEEGSEGEGEPELSPADACPLAELRAAGLEPVGHYEEVELTETSVNVGPERIGPHCFELLRVLGKGGYGKVFQVRKVQGTNLGKIYAMKVLRKAKIVRNAKDTAHTRAERNILESVKHPFIVELAYAFQTGGKLYLILECLSGGELFTHLEREGIFLEDTACFYLAEITLALGHLHSQGIIYRDLKPENIMLSSQGHIKLTDFGLCKESIHEGAVTHTFCGTIEYMAPEILVRSGHNRAVDWWSLGALMYDMLTGSPPFTAENRKKTMDKIIRGKLALPPYLTPDARDLVKKFLKRNPSQRIGGGPGDAADVQRHPFFRHMNWDDLLAWRVDPPFRPCLQSEEDVSQFDTRFTRQTPVDSPDDTALSESANQAFLGFTYVAPSVLDSIKEGFSFQPKLRSPRRLNSSPRAPVSPLKFSPFEGFRPSPSLPEPTELPLPPLLPPPPPSTTAPLPIRPPSGTKKSKRGRGRPGR
modifications: left off: a dimerising Fc or GST
B2: EPHB4 (protein)
chain: LCLRKQSNGREAEYSDKHGQYLIGHGTKVYIDPFTYEDPNEAVREFAKEIDVSYVKIEEVIGAGEFGEVCRGRLKAPGKKESCVAIKTLKGGYTERQRREFLSEASIMGQFEHPNIIRLEGVVTNSMPVMILTEFMENGALDSFLRLNDGQFTVIQLVGMLRGIASGMRYLAEMSYVHRDLAARNILVNSNLVCKVSDFGLSRFLEENSSDPTYTSSLGGKIPIRWTAPEAIAFRKFTSASDAWSYGIVMWEVMSFGERPYWDMSNQDVINAIEQDYRLPPPPDCPTSLHQLMLDCWQKDRNARPRFPQVVSALDKMIRNPASLKIVARENGGASHPLLDQRQPHYSAFGSVGEWLRAIKMGRYEESFAAAGFGSFELVSQISAEDLLRIGVTLAGHQKKILASVQHMKSQAKPGTPGGTGGPAPQY
modifications: left off: small tags and cut ends
B3: STK17A(DRAK1) (protein)
chain: MIPLEKPGSGGSSPGATSGSGRAGRGLSGPCRPPPPPQARGLLTEIRAVVRTEPFQDGYSLCPGRELGRGKFAVVRKCIKKDSGKEFAAKFMRKRRKGQDCRMEIIHEIAVLELAQDNPWVINLHEVYETASEMILVLEYAAGGEIFDQCVADREEAFKEKDVQRLMRQILEGVHFLHTRDVVHLDLKPQNILLTSESPLGDIKIVDFGLSRILKNSEELREIMGTPEYVAPEILSYDPISMATDMWSIGVLTYVMLTGISPFLGNDKQETFLNISQMNLSYSEEEFDVLSESAVDFIRTLLVKKPEDRATAEECLKHPWLTQSSIQEPSFRMEKALEEANALQEGHSVPEINSDTDKSETKESIVTEELIVVTSYTLGQCRQSEKEKMEQKAISKRFKFEEPLLQEIPGEFIY
modifications: left off: a dimerising Fc or GST
B4: SRPK2 (protein)
chain: MSSRKVLAIQARKRRPKREKHPKKPEPQQKAPLVPPPPPPPPPPPPPLPDPTPPEPEEEILGSDDEEQEDPADYCKGGYHPVKIGDLFNGRYHVIRKLGWGHFSTVWLCWDMQGKRFVAMKVVKSAQHYTETALDEIKLLKCVRESDPSDPNKDMVVQLIDDFKISGMNGIHVCMVFEVLGHHLLKWIIKSNYQGLPVRCVKSIIRQVLQGLDYLHSKCKIIHTDIKPENILMCVDDAYVRRMAAEATEWQKAGAPPPSGSAVSTAPQQKPIGKISKNKKKKLKKKQKRQAELLEKRLQEIEELEREAERKIIEENITSAAPSNDQDGEYCPEVKLKTTGLEEAAEAETAKDNGEAEDQEEKEDAEKENIEKDEDDVDQELANIDPTWIESPKTNGHIENGPFSLEQQLDDEDDDEEDCPNPEEYNLDEPNAESDYTYSSSYEQFNGELPNGRHKIPESQFPEFSTSLFSGSLEPVACGSVLSEGSPLTEQEESSPSHDRSRTVSASSTGDLPKAKTRAADLLVNPLDPRNADKIRVKIADLGNACWVHKHFTEDIQTRQYRSIEVLIGAGYSTPADIWSTACMAFELATGDYLFEPHSGEDYSRDEDHIAHIIELLGSIPRHFALSGKYSREFFNRRGELRHITKLKPWSLFDVLVEKYGWPHEDAAQFTDFLIPMLEMVPEKRASAGECLRHPWLNS
modifications: left off: a dimerising Fc or GST
B5: STK22D(TSSK1) (protein)
chain: MDDAAVLKRRGYLLGINLGEGSYAKVKSAYSERLKFNVAIKIIDRKKAPADFLEKFLPREIEILAMLNHCSIIKTYEIFETSHGKVYIVMELAVQGDLLELIKTRGALHEDEARKKFHQLSLAIKYCHDLDVVHRDLKCDNLLLDKDFNIKLSDFSFSKRCLRDDSGRMALSKTFCGSPAYAAPEVLQGIPYQPKVYDIWSLGVILYIMVCGSMPYDDSNIKKMLRIQKEHRVNFPRSKHLTGECKDLIYHMLQPDVNRRLHIDEILSHCWMQPKARGSPSVAINKEGESSRGTEPLWTPEPGSDKKSATKLEPEGEAQPQAQPETKPEGTAMQMSRQSEILGFPSKPSTMETEEGPPQQPPETRAQ
modifications: left off: small tags and cut ends
B6: RPS6KA4(MSK2) (protein)
chain: MGDEDDDESCAVELRITEANLTGHEEKVSVENFELLKVLGTGAYGKVFLVRKAGGHDAGKLYAMKVLRKAALVQRAKTQEHTRTERSVLELVRQAPFLVTLHYAFQTDAKLHLILDYVSGGEMFTHLYQRQYFKEAEVRVYGGEIVLALEHLHKLGIIYRDLKLENVLLDSEGHIVLTDFGLSKEFLTEEKERTFSFCGTIEYMAPEIIRSKTGHGKAVDWWSLGILLFELLTGASPFTLEGERNTQAEVSRRILKCSPPFPPRIGPVAQDLLQRLLCKDPKKRLGAGPQGAQEVRNHPFFQGLDWVALAARKIPAPFRPQIRSELDVGNFAEEFTRLEPVYSPPGSPPPGDPRIFQGYSFVAPSILFDHNNAVMTDGLEAPGAGDRPGRAAVARSAMMQDSPFFQQYELDLREPALGQGSFSVCRRCRQRQSGQEFAVKILSRRLEANTQREVAALRLCQSHPNVVNLHEVHHDQLHTYLVLELLRGGELLEHIRKKRHFSESEASQILRSLVSAVSFMHEEAGVVHRDLKPENILYADDTPGAPVKIIDFGFARLRPQSPGVPMQTPCFTLQYAAPELLAQQGYDESCDLWSLGVILYMMLSGQVPFQGASGQGGQSQAAEIMCKIREGRFSLDGEAWQGVSEEAKELVRGLLTVDPAKRLKLEGLRGSSWLQDGSARSSPPLRTPDVLESSGPAVRSGLNATFMAFNRGKREGFFLKSVENAPLAKRRKQKLRSATASRRGSPAPANPGRAPVASKGAPRRANGPLPPS
modifications: left off: a dimerising Fc or GST
B7: SGK (protein, UniProt O00141 1-431, looked up)
Serine/threonine-protein …: MTVKTEAAKGTLTYSRMRGMVAILIAFMKQRRMGLNDFIQKIANNSYACKHPEVQSILKISQPQEPELMNANPSPPPSPSQQINLGPSSNPHAKPSDFHFLKVIGKGSFGKVLLARHKAEEVFYAVKVLQKKAILKKKEEKHIMSERNVLLKNVKHPFLVGLHFSFQTADKLYFVLDYINGGELFYHLQRERCFLEPRARFYAAEIASALGYLHSLNIVYRDLKPENILLDSQGHIVLTDFGLCKENIEHNSTTSTFCGTPEYLAPEVLHKQPYDRTVDWWCLGAVLYEMLYGLPPFYSRNTAEMYDNILNKPLQLKPNITNSARHLLEGLLQKDRTKRLGAKDDFMEIKSHVFFSLINWDDLINKKITPPFNPNVSGPNDLRHFDPEFTEEPVPNSIGKSPDSVLVTASVKEAAEAFLGFSYAPPTDSFL
B8: RPS6KB1(p70S6K) (protein)
chain: MRRRRRRDGFYPAPDFRDREAEDMAGVFDIDLDQPEDAGSEDELEEGGQLNESMDHGGVGPYELGMEHCEKFEISETSVNRGPEKIRPECFELLRVLGKGGYGKVFQVRKVTGANTGKIFAMKVLKKAMIVRNAKDTAHTKAERNILEEVKHPFIVDLIYAFQTGGKLYLILEYLSGGELFMQLEREGIFMEDTACFYLAEISMALGHLHQKGIIYRDLKPENIMLNHQGHVKLTDFGLCKESIHDGTVTHTFCGTIEYMAPEILMRSGHNRAVDWWSLGALMYDMLTGAPPFTGENRKKTIDKILKCKLNLPPYLTQEARDLLKKLLKRNAASRLGAGPGDAGEVQAHPFFRHINWEELLARKVEPPFKPLLQSEEDVSQFDSKFTRQTPVDSPDDSTLSESANQVFLGFEYVAPSVLES
modifications: left off: a dimerising Fc or GST
B9: SGKL(SGK3) (protein, UniProt Q96BR1 1-496, looked up)
Serine/threonine-protein …: MQRDHTMDYKESCPSVSIPSSDEHREKKKRFTVYKVLVSVGRSEWFVFRRYAEFDKLYNTLKKQFPAMALKIPAKRIFGDNFDPDFIKQRRAGLNEFIQNLVRYPELYNHPDVRAFLQMDSPKHQSDPSEDEDERSSQKLHSTSQNINLGPSGNPHAKPTDFDFLKVIGKGSFGKVLLAKRKLDGKFYAVKVLQKKIVLNRKEQKHIMAERNVLLKNVKHPFLVGLHYSFQTTEKLYFVLDFVNGGELFFHLQRERSFPEHRARFYAAEIASALGYLHSIKIVYRDLKPENILLDSVGHVVLTDFGLCKEGIAISDTTTTFCGTPEYLAPEVIRKQPYDNTVDWWCLGAVLYEMLYGLPPFYCRDVAEMYDNILHKPLSLRPGVSLTAWSILEELLEKDRQNRLGAKEDFLEIQNHPFFESLSWADLVQKKIPPPFNPNVAGPDDIRNFDTAFTEETVPYSVCVSSDYSIVNASVLEADDAFVGFSYAPPSEDLFL
B10: SGK2 (protein)
chain: LPDHCYRMNSSPAGTPSPQPSRANGNINLGPSANPNAQPTDFDFLKVIGKGNYGKVLLAKRKSDGAFYAVKVLQKKSILKKKEQSHIMAERSVLLKNVRHPFLVGLRYSFQTPEKLYFVLDYVNGGELFFHLQRERRFLEPRARFYAAEVASAIGYLHSLNIIYRDLKPENILLDCQGHVVLTDFGLCKEGVEPEDTTSTFCGTPEYLAPEVLRKEPYDRAVDWWCLGAVLYEMLHGLPPFYSQDVSQMYENILHQPLQIPGGRTVAACDLLQSLLHKDQRQRLGSKADFLEIKNHVFFSPINWDDLYHKRLTPPFNPNVTGPADLKHFDPEFTQEAVSKSIGCTPDTVASSSGASSAFLGFDYAPEDDDILDC
modifications: left off: a dimerising Fc or GST
B11: STK22B(TSSK2) (protein)
chain: MDDATVLRKKGYIVGINLGKGSYAKVKSAYSERLKFNVAVKIIDRKKTPTDFVERFLPREMDILATVNHGSIIKTYEIFETSDGRIYIIMELGVQGDLLEFIKCQGALHEDVARKMFRQLSSAVKYCHDLDIVHRDLKCENLLLDKDFNIKLSDFGFSKRCLRDSNGRIILSKTFCGSAAYAAPEVLQSIPYQPKVYDIWSLGVILYIMVCGSMPYDDSDIRKMLRIQKEHRVDFPRSKNLTCECKDLIYRMLQPDVSQRLHIDEILSHSWLQPPKPKATSSASFKREGEGKYRAECKLDTKTGLRPDHRPDHKLGAKTQHRLLVVPENENRMEDRLAETSRAKDHHISGAEVGKAST
modifications: left off: small tags and cut ends

Tested on: kinases of Table 6 on Myelin Basic Protein (MBP)
Assay: Kinase assay using MBP substrate, ProQ Diamond stain (Table 6)
Assay type: biochemical
Settings: kinase printed on MBP-coated slide; 20 uM ATP, 30° C.; ProQ Diamond Microarray Stain; graded Strong/Weak/Negative
How it was run: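 Bovine dephosphorylated MBP coated on aldehyde- or epoxy-glass slides, kinases printed on top; reaction buffer pH 7.5 with 4 mM MgCl2, 20 uM ATP, 5% DMSO, ± inhibitor, at 30° C. Phosphorylation detected by ProQ Diamond stain, 30 min in dark.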

Row | Molecule | MBP Kinase Activity
1 | B1 | Negative
2 | B2 | Strong
3 | B3 | Negative
4 | B4 | Strong
5 | B5 | Strong
6 | B6 | Weak
7 | B7 | Strong
8 | B8 | Negative
9 | B9 | Weak
10 | B10 | Weak
11 | B11 | Negative
